Consider two molecules from patent publication US20090136510A1 (Eli Lilly, published 2009).

Assay [1] concerns the target T1, Recombinant RON-Fc (UniProt Q04912 25-957, limits assumed).
T1 construct: Immobilised on the BIAcore chip; also called RON proteins; not shown: Fc part
T1 sequence (looked up): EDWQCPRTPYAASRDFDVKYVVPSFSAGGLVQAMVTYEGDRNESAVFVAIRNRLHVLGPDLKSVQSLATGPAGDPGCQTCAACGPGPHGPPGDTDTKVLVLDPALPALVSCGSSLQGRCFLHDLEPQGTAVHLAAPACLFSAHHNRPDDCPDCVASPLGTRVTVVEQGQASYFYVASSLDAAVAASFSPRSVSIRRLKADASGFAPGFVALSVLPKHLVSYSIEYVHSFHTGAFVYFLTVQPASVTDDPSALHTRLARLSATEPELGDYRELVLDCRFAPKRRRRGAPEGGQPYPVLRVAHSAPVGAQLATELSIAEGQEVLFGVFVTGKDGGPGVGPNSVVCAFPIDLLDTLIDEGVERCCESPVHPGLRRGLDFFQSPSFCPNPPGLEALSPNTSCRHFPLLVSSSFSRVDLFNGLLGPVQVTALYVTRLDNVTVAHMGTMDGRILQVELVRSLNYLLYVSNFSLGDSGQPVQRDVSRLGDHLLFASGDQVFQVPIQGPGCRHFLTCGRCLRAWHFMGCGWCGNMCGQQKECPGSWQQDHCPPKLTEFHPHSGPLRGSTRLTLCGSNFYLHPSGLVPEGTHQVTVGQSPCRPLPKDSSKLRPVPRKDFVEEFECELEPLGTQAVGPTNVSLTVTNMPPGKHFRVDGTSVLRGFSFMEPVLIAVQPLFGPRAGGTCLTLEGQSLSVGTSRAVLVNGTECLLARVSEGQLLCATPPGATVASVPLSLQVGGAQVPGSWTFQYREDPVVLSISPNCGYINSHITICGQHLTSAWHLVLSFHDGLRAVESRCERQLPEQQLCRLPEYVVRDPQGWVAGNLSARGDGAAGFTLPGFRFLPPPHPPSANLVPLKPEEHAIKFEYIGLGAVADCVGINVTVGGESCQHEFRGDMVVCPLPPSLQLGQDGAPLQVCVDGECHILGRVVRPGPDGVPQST
The experiment in a line: comparison of KD values; reference RON1.

Assay [2] addresses T2, recombinant human RON protein (rh-RON protein, R&D Systems; recombinant human MSPR) (human, UniProt Q04912 25-571).
T2 construct: Bought soluble recombinant protein; also called rhu-RON protein; rh-MSPR; not shown: His tag on the recombinant protein
T2 sequence (looked up): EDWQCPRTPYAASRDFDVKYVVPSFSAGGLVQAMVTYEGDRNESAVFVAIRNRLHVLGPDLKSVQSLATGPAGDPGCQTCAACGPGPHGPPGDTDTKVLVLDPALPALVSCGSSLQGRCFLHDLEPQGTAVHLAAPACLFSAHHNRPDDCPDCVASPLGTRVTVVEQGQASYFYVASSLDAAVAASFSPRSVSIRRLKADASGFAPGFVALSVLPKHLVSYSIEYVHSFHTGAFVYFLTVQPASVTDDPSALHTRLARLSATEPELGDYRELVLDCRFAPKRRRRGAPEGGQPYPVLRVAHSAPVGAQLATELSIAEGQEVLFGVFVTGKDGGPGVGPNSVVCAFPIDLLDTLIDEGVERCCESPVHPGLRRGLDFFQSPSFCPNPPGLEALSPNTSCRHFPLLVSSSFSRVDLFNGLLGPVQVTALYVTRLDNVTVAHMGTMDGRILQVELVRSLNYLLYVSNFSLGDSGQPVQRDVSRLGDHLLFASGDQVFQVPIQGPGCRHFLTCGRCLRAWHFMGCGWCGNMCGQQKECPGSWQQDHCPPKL
The experiment in a line: ELISA, blocking of MSP/RON interaction; ligand MSP.

In assay [3] the target is T2, recombinant human RON protein (rh-RON …). The experiment in a line: ELISA, receptor immobilised on the plate (given as ED50). The method, then: The ability of the anti-RON antibodies, RON6 and RON8, to bind to recombinant human RON receptor and to block the MSP/RON interaction were measured using ELISA. […] Using the same ELISA format, the two antibodies were tested for their ability to block MSP/RON interactions. The measured IC₅₀ values were 46 pM for RON6 and 62 pM for RON8.
In general terms: An ELISA detects its analyte on a solid surface through an enzyme-linked reagent.

Assay [4] addresses T1, Recombinant RON-Fc. The experiment in a line: SPR (BIACORE 3000), RON-Fc immobilised, antibody injected; BIACORE 3000, RON-Fc immobilized. The method, then:
BIAcore Analysis. The binding kinetics of the antibodies to the RON proteins was determined by using a BIACORE 3000 (BIAcore, Piscataway, N.J.). Recombinant RON-Fc was immobilized onto a sensor chip, and antibody was injected at various concentrations. Sensorgrams were obtained and evaluated using BIA Evaluation 2.0 software to determine rate constants. The affinity constant, KD, was calculated from the ratio of the rate constants Koff/Kₒₙ. The “Kₒₙ, M⁻¹.S⁻¹” and “Koff, S⁻¹” rates of the interaction were used to determine the affinity (Kd, M) of the antibody/receptor interaction. […] For RON8 they were: 3.2e-11, 6.1e6 and 2.0e-4

Assay [5] deals with T1, Recombinant RON-Fc. The experiment in a line: method and RON form not stated at this place; clone-selection value of paragraph 178; method and RON form not stated.
The target of assay [6] is T2, recombinant human RON protein (rh-RON …). The experiment in a line: blocking ELISA: serially diluted RON8 pre-incubated with His-tagged recombinant human RON (rh-MSPR), added to plate-immobilised recombinant human MSP (the blocked ligand); bound RON detected with anti-His-tag HRP, absorbance 450 nm. The method, then: ELISA to Detect RON8 Blocking of MSP Binding to RON: ELISA plates were coated with 100 ng/well carrier-free MSP (R&D Systems) overnight at 4° C. on a rocker. The plate was washed once with 0.2% PBS/T and blocked for 2 hours at 37° C. with 150 μL/well 3% milk. A 15 μg/mL dilution of RON8 was prepared and serially diluted across another ELISA plate. To the RON8, was added 100 ng/well recombinant human MSPR (R&D Systems). The RON8/rh-MSPR complex was allowed to form for 2 hours at room temperature on a rocker. Next, the MSP-coated ELISA plate was washed once with 0.2% PBS/T and 100 μL of the RON8/rh-MSPR complex were added per well. After a 1.5-hour incubation at room temperature, the plate was washed five times with 0.2% PBS/T and incubated for 1 hour at room temperature with a 1:2,000 dilution of anti-His-tag HRP antibody (Sigma), which recognizes a His tag on the recombinant human MSPR protein. The plate was washed five times with 0.2% PBS/T and 100-AL substrate was added per well until a yellow color developed. The reaction was stopped with 50 μL of 1N H₂SO4 and the absorbance at 450 nm determined with a standard plate reader. The results of which are illustrated by FIG. 6A depict the solid-phase blocking characteristic of RON8. The ELISA data determined the IC50 value of RON8 needed to block the interaction of recombinant human RON protein to immobilized recombinant human MSP.

One may read the IC50 as the concentration at which inhibition is half-maximal. By EC50 is commonly meant the concentration giving half of the maximal effect. One may read the Kd as a measure of binding affinity in units of concentration. As usually defined, the koff is the first-order rate constant of dissociation. In general, kon refers to the second-order rate constant of association.

B1: RON8 antibody (human anti-RON monoclonal antibody) (antibody, human IgG1, kappa, V domains shown)
VH: EVQLVESGGGLVQPGGSLRLSCAASGFTFSSYLMTWVRQAPGKGLEWVANIKQDGSEKYYVDSVKGRFTISRDNAKNSLNLQMNSLRAEDTAVYYCTRDGYSSGRHYGMDVWGQGTTVIVSS
VL: EIVLTQSPATLSLSPGERATLSCRASQSVSRYLAWYQQKPGQAPRLLIYDASNRATGIPARFSGSGSGTDFTLTISSLEPEDFAVYYCQQRSNWPRTFGQGTKVEIKR
notes: Fully human IgG from HuMAb mice
In the case of B1, in the assay with Recombinant RON-Fc [1], the “fold greater affinity than RON1” value was 100 fold. In addition, the IC50 in assay [2] was 0.062 nM. Moreover, the EC50 in assay [3] stood at 0.0021 nM. Further, in the assay with Recombinant RON-Fc [4], the Kd is 0.032 nM, the koff is 0.0002 s⁻¹ and the kon was 6.1e+06 M⁻¹ s⁻¹. The Kd with Recombinant RON-Fc [5] is 0.023 nM. In assay [6], the IC50 was found to be 0.473 nM and the “IC50 (read off the curve)” value was about 0.5 nM.

B2: RON6 antibody (human anti-RON monoclonal antibody) (antibody, human IgG1, kappa, V domains shown)
VH: QVQLVQSGPEVKKSGSSVKVSCKASGGTFSSDAITWVRQAPGQGLEWMGGIIPILGMANYAQKFQGRVTITADKSTNTAYMELSSLRSEDTAVYFCARVADYYGLGTYYWYFDLWGRGTLVTVSS
VL: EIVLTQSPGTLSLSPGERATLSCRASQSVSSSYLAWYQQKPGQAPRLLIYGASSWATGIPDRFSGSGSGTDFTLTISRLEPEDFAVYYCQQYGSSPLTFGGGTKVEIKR
notes: as for B1
In the case of B2, in the assay with Recombinant RON-Fc [1], the “fold greater affinity than RON1” value is 100 fold. In assay [2], the IC50 stood at 0.046 nM. Also, the 50% effective concentration (EC50) in assay [3] is 0.0042 nM. Further, in the assay with Recombinant RON-Fc [4], the Kd was determined as 0.041 nM, the koff amounted to 8.6e-05 s⁻¹ and the kon was determined as 2.2e+06 M⁻¹ s⁻¹. Moreover, the Kd in the assay with Recombinant RON-Fc [5] came out at 0.045 nM.
